Laboratory results published in patent US20140087995A1 (published 2014).
Numbered stars: 1 amine (or outer) side, 2 acyl side, 3 side chain; on linkers, the order of the positions; unused ones are H or OH. Bridge positions count the residues as written; N and C are the ends. Side chains are listed from the residue outwards. Ends that are not written are not given here. * marks the point of attachment. C20 diacid = O=C(O)CCCCCCCCCCCCCCCCCCC(=O)*; γGlu = O=C(O)[C@H](CCC(=O)[*:2])N[*:1]; AEEA = NCCOCCOCC(=O)O

Experiments:
rat calcitonin receptor [1] = molecular target: T1, rat calcitonin receptor (rat, UniProt P32214 25-516); assay: SPA competition with 125I-calcitonin, membranes of BHK cells with rat CTR (Assay VIII)
T1 construct: whole, on cells; Used as membranes prepared from BHK tk'ts 13 cells transiently transfected with the rat calcitonin receptor (Assay VIII); also called rCTR; rat calcitonin (a) receptor
T1 sequence (looked up): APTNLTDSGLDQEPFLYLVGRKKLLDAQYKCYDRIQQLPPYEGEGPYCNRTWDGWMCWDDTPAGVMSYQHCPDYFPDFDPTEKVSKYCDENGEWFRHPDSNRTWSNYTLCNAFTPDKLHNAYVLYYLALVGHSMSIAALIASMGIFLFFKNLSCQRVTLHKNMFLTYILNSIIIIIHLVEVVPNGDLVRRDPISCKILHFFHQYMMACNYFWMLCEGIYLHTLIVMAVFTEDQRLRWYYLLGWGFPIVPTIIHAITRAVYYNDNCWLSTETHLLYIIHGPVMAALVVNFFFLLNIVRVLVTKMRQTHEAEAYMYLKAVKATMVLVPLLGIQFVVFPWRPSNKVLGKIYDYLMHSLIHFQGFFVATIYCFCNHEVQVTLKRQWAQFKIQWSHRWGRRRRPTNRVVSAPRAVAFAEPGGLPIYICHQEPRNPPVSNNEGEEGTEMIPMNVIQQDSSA

rat calcitonin receptor [2] = molecular target: T1, rat calcitonin receptor; assay: IC50 on rat CTR divided by IC50 on rat amylin receptor (Assays VIII/VI)
[3] = molecular target: T2, rat amylin receptor (rat calcitonin receptor + rat RAMP 3) (rat, UniProt P32214 25-516; Q9JJ73 23-147); assay: SPA competition with 125I-rat amylin, membranes of BHK cells with rat CTR + rat RAMP3 (Assay VI)
T2 construct: whole, on cells; Used as membranes prepared from BHK tk'ts 13 cells transiently transfected with rat calcitonin receptor and rat RAMP 3 (Assay VI); also called rAmylin-R; rat amylin 3(a) receptor
T2 sequence (looked up) 1: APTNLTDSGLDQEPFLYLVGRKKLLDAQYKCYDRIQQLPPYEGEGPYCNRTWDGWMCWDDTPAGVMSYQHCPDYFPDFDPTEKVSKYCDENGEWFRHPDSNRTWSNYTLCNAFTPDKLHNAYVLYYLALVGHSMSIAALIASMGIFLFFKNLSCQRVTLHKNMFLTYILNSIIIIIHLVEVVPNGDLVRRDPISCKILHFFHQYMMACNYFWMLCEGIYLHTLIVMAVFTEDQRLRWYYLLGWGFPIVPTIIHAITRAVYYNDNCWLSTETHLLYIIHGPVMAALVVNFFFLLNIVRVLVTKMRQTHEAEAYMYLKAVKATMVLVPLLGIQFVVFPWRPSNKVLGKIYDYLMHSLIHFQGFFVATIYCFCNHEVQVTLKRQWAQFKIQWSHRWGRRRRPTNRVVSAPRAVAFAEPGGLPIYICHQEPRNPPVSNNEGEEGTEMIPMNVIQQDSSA
T2 sequence (looked up) 2: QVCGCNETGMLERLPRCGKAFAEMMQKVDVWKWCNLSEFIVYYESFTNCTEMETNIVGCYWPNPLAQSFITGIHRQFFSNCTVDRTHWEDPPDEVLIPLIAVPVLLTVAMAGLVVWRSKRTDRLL
Experimental: The binding assay was performed using scintillation proximity assay (SPA) beads (RPNQ0001) from PerkinElmer and cell membranes from the Amylin 3(a)/CRE-luc cells (as described in Assay (II)) were used. Membranes were prepared in the following way; the cells were rinsed with PBS and incubated with Versene for approximately 5 min before harvesting. The cells were flushed with PBS and the cell-suspension was centrifuged for 5 min at 1000 rpm. Cells were homogenized (ultrathurrax) in a buffer containing 20 mM Na-HEPES and 10 mM EDTA (pH 7.4) and centrifuged at 20.000 rpm for 15 min. The resulting pellet was resuspended, homogenized and centrifuged (20.000 rpm, 15 min) in a buffer containing 20 mM Na-HEPES and 0.1 mM EDTA (pH 7.4, buffer 2). The resulting pellet was resuspended in buffer 2 and protein concentration was measured (BCA protein Assay, Pierce). The homogenate was kept cold during the whole procedure. The membranes were kept at −80° C. until use. The assay was performed in a 384 well Optiplate (PerkinElmer) in a total volume of 40 ul. Membranes were mixed with SPA beads. Final concentration of membranes 35 ng/μL final and SPA beads was 0.05 mg/well. Test-compounds were dissolved in DMSO and further diluted in assay buffer (50 mM Hepes, pH 7.4, 1 mM CaCl2, 5 mM MgCl₂, 0.1% OA and 0.02% Tween20). […] The final mixture was incubated with shaking at 400 rpm for 120 min at 25° C. prior to centrifugation (1500 rpm, 10 min). Samples were analyzed on TopCounter™ (Packard). The IC₅₀ was calculated using (one site binding competition analysis) GraphPad Prism5 as a measure of receptor affinity.
Cells were grown in DMEM with 10% FBS and 1% Pen/Strep. Approximately 48 hours after transfection, the cells were harvested and membranes were prepared.

[4] = molecular target: T3, human calcitonin receptor (human, UniProt P30988 25-474); assay: IC50 on human CTR divided by IC50 on human amylin receptor (Assays VII/V)
T3 construct: whole, on cells; Used as membranes prepared from a BHK tk'ts 13 cell line stably transfected with the human calcitonin receptor (Assay VII); also called hCTR; hCT
T3 sequence (looked up): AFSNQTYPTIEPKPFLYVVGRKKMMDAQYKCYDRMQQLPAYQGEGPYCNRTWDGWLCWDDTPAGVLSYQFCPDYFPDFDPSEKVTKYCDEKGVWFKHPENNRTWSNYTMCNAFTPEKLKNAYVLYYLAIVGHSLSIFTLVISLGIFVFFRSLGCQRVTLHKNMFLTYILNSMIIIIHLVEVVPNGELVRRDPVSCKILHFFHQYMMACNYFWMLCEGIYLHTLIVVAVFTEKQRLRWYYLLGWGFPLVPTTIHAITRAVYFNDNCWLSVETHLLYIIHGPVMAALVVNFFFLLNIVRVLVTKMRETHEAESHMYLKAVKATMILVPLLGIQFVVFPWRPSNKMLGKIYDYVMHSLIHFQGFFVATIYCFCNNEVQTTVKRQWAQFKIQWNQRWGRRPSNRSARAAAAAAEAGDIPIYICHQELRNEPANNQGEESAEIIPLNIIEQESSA
Experimental: (§1) The resulting pellet was resuspended, homogenized and centrifuged (20.000 rpm, 15 min) in a buffer containing 20 mM Na-HEPES and 0.1 mM EDTA (pH 7.4, buffer 2). The resulting pellet was resuspended in buffer 2 and protein concentration was measured (BCA protein Assay, Pierce). The homogenate was kept cold during the whole procedure. The membranes were kept at −80° C. until use. The assay was performed in a 384 well Optiplate (PerkinElmer) in a total volume of 40 ul. Membranes were mixed with SPA beads. Final concentration of membranes 35 ng/μL final and SPA beads was 0.05 mg/well. Test-compounds were dissolved in DMSO and further diluted in assay buffer (50 mM Hepes, pH 7.4, 1 mM CaCl2, 5 mM MgCl₂, 0.1% OA and 0.02% Tween20). […] The final mixture was incubated with shaking at 400 rpm for 120 min at 25° C. prior to centrifugation (1500 rpm, 10 min). Samples were analyzed on TopCounter™ (Packard). The IC₅₀ was calculated using (one site binding competition analysis) GraphPad Prism5 as a measure of receptor affinity.
(§2) Membranes were prepared in the following way; the cells were rinsed with PBS and incubated with Versene for approximately 5 min before harvesting. The cells were flushed with PBS and the cell-suspension was centrifuged for 5 min at 1000 rpm. Cells were homogenized (Ultrathurrax) in a buffer containing 20 mM Na-HEPES and 10 mM EDTA (pH 7.4) and centrifuged at 20.000 rpm for 15 min. The resulting pellet was resuspended, homogenized and centrifuged (20.000 rpm, 15 min) in a buffer containing 20 mM Na-HEPES and 0.1 mM EDTA (pH 7.4, buffer 2). The resulting pellet was resuspended in buffer 2 and protein concentration was measured (BCA protein Assay, Pierce). The homogenate was kept cold during the whole procedure. The membranes were kept at −80° C. until use. Assay was performed in a 384 well Optiplate (PerkinElmer) in a total volume of 40 ul. Membranes were mixed with SPA beads.

[5] = molecular target: T4, human calcitonin receptor (human, UniProt P30988 25-474); assay: ratio IC50 human calcitonin receptor / IC50 human amylin receptor (Assays VII and V)
T4 construct: whole, on cells; Used as membranes prepared from the transfected cells (Assay VII); also called hCTR; hCT
T4 sequence (looked up): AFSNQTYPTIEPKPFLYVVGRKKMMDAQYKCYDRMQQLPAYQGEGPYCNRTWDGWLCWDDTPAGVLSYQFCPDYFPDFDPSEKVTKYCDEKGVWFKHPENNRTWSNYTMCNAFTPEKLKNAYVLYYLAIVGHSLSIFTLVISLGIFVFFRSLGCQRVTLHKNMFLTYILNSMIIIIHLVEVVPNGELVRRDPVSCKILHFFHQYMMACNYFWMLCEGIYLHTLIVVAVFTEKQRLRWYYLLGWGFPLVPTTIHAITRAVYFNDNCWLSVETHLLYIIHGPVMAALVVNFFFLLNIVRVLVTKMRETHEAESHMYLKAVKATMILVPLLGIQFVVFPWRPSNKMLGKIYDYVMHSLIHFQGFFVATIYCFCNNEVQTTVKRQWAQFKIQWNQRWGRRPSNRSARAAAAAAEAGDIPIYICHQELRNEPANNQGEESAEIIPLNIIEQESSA
Experimental: as §1, §2

Binder	IC50 (rat calcitonin receptor [1]) [nM]	Ratio rCT/rAmylin binding (rat calcitonin receptor [2])	IC50 [3] [nM]	Ratio hCT/hAmylin binding [4]	Ratio hCT/hAmylin binding [5]
K([AEEA-C20 diacid])CNTATCATQRLANFLRHSSPNFGAIPSSTNVGSNTY-NH2 (disulfide 2-7; N-terminus assumed; SMILES CC[C@H](C)[C@H](NC(=O)[C@H](C)NC(=O)CNC(=O)[C@H](Cc1ccccc1)NC(=O)[C@H](CC(N)=O)NC(=O)[C@@H]1CCCN1C(=O)[C@H](CO)NC(=O)[C@H](CO)NC(=O)[C@H](Cc1c[nH]cn1)NC(=O)[C@H](CCCNC(=N)N)NC(=O)[C@H](CC(C)C)NC(=O)[C@H](Cc1ccccc1)NC(=O)[C@H](CC(N)=O)NC(=O)[C@H](C)NC(=O)[C@H](CC(C)C)NC(=O)[C@H](CCCNC(=N)N)NC(=O)[C@H](CCC(N)=O)NC(=O)[C@@H](NC(=O)[C@H](C)NC(=O)[C@@H]1CSSC[C@H](NC(=O)[C@@H](N)CCCCNC(=O)COCCOCCNC(=O)CCCCCCCCCCCCCCCCCCC(=O)O)C(=O)N[C@@H](CC(N)=O)C(=O)N[C@@H]([C@@H](C)O)C(=O)N[C@@H](C)C(=O)N[C@@H]([C@@H](C)O)C(=O)N1)[C@@H](C)O)C(=O)N1CCC[C@H]1C(=O)N[C@@H](CO)C(=O)N[C@@H](CO)C(=O)N[C@H](C(=O)N[C@@H](CC(N)=O)C(=O)N[C@H](C(=O)NCC(=O)N[C@@H](CO)C(=O)N[C@@H](CC(N)=O)C(=O)N[C@H](C(=O)N[C@@H](Cc1ccc(O)cc1)C(N)=O)[C@@H](C)O)C(C)C)[C@@H](C)O, Analogue of human amylin; also called compound 43) [N^ε1-[2-[2-[2-(19-carboxynonadecanoylamino)ethoxy]ethoxy]acetyl]-[Arg17,Pro21,Pro27]-h-amylin]	7.6	69.1	0.11	34.7	–
K([AEEA-γGlu-C20 diacid])CNTATCATQRLAAFLRHSSPNFGAIPSSTPVGSNTY-NH2 (disulfide 2-7; N-terminus assumed; SMILES CC[C@H](C)[C@H](NC(=O)[C@H](C)NC(=O)CNC(=O)[C@H](Cc1ccccc1)NC(=O)[C@H](CC(N)=O)NC(=O)[C@@H]1CCCN1C(=O)[C@H](CO)NC(=O)[C@H](CO)NC(=O)[C@H](Cc1c[nH]cn1)NC(=O)[C@H](CCCNC(=N)N)NC(=O)[C@H](CC(C)C)NC(=O)[C@H](Cc1ccccc1)NC(=O)[C@H](C)NC(=O)[C@H](C)NC(=O)[C@H](CC(C)C)NC(=O)[C@H](CCCNC(=N)N)NC(=O)[C@H](CCC(N)=O)NC(=O)[C@@H](NC(=O)[C@H](C)NC(=O)[C@@H]1CSSC[C@H](NC(=O)[C@@H](N)CCCCNC(=O)COCCOCCNC(=O)CC[C@H](NC(=O)CCCCCCCCCCCCCCCCCCC(=O)O)C(=O)O)C(=O)N[C@@H](CC(N)=O)C(=O)N[C@@H]([C@@H](C)O)C(=O)N[C@@H](C)C(=O)N[C@@H]([C@@H](C)O)C(=O)N1)[C@@H](C)O)C(=O)N1CCC[C@H]1C(=O)N[C@@H](CO)C(=O)N[C@@H](CO)C(=O)N[C@H](C(=O)N1CCC[C@H]1C(=O)N[C@H](C(=O)NCC(=O)N[C@@H](CO)C(=O)N[C@@H](CC(N)=O)C(=O)N[C@H](C(=O)N[C@@H](Cc1ccc(O)cc1)C(N)=O)[C@@H](C)O)C(C)C)[C@@H](C)O, Analogue of human amylin; also called compound 72)	221	259	0.851	247	–
{C20 diacid-γGlu-γGlu}-KCNTATCATQRLAEFLRHSSPNFGAIPSSTNVGSNTY-NH2 (disulfide 2-7; SMILES CC[C@H](C)[C@H](NC(=O)[C@H](C)NC(=O)CNC(=O)[C@H](Cc1ccccc1)NC(=O)[C@H](CC(N)=O)NC(=O)[C@@H]1CCCN1C(=O)[C@H](CO)NC(=O)[C@H](CO)NC(=O)[C@H](Cc1c[nH]cn1)NC(=O)[C@H](CCCNC(=N)N)NC(=O)[C@H](CC(C)C)NC(=O)[C@H](Cc1ccccc1)NC(=O)[C@H](CCC(=O)O)NC(=O)[C@H](C)NC(=O)[C@H](CC(C)C)NC(=O)[C@H](CCCNC(=N)N)NC(=O)[C@H](CCC(N)=O)NC(=O)[C@@H](NC(=O)[C@H](C)NC(=O)[C@@H]1CSSC[C@H](NC(=O)[C@H](CCCCN)NC(=O)CC[C@H](NC(=O)CC[C@H](NC(=O)CCCCCCCCCCCCCCCCCCC(=O)O)C(=O)O)C(=O)O)C(=O)N[C@@H](CC(N)=O)C(=O)N[C@@H]([C@@H](C)O)C(=O)N[C@@H](C)C(=O)N[C@@H]([C@@H](C)O)C(=O)N1)[C@@H](C)O)C(=O)N1CCC[C@H]1C(=O)N[C@@H](CO)C(=O)N[C@@H](CO)C(=O)N[C@H](C(=O)N[C@@H](CC(N)=O)C(=O)N[C@H](C(=O)NCC(=O)N[C@@H](CO)C(=O)N[C@@H](CC(N)=O)C(=O)N[C@H](C(=O)N[C@@H](Cc1ccc(O)cc1)C(N)=O)[C@@H](C)O)C(C)C)[C@@H](C)O, Derivative of human amylin; also called compound 15)	–	–	–	–	26
